# Measured values reported in PMC10439028, “SGLT5 is the renal transporter for 1,5-anhydroglucitol, a major player in two rare forms of neutropenia” (Cellular and Molecular Life Sciences: CMLS, 2023).
# B1: hSGLT5 Ala522Val (Homo sapiens; A522V) (protein)
# chain: MAANSTSDLHTPGTQLSVADIIVITVYFALNVAVGIWSSCRASRNTVNGYFLAGRDMTWWPIGASLFASSEGSGLFIGLAGSGAAGGLAVAGFEWNATYVLLALAWVFVPIYISSEIVTLPEYIQKRYGGQRIRMYLSVLSLLLSVFTKISLDLYAGALFVHICLGWNFYLSTILTLGITALYTIAGGLAAVIYTDALQTLIMVVGAVILTIKAFDQIGGYGQLEAAYAQAIPSRTIANTTCHLPRTDAMHMFRDPHTGDLPWTGMTFGLTIMATWYWCTDQVIVQRSLSARDLNHAKAGSILASYLKMLPMGLIIMPGMISRALFPDDVGCVVPSECLRACGAEVGCSNIAYPKLVMELMPIGLRGLMIAVMLAALMSSLTSIFNSSSTLFTMDIWRRLRPRSGERELLLVGRLVIVALIGVSVAWIPVLQDSNSGQLFIYMQSVTSSLAPPVTAVFVLGVFWRRANEQGAFWGLIAGLVVGATRLVLEFLNPAPPCGEPDTRPAVLGSIHYLHFAVALFVLSGAVVVAGSLLTPPPQSVQIENLTWWTLAQDVPLGTKAGDGQTPQKHAFWARVCGFNAILLMCVNIFFYAYFA
# notes: pUB83-hSGLT5-iso2 as well as the various SGLT5 mutants obtained were used to transduce HEK293T cells; expressed in transfected cells; host or cells: HEK293T, lentiviral transduction (pUB83)
# Substrate: OC[C@H]1OC[C@H](O)[C@@H](O)[C@@H]1O
# Assay: 1,5-AG uptake in HEK293T cells overexpressing SGLT5 variant Ala522Val
# Assay type: cell-based, human
# Settings: other: variant Ala522Val (rs12604020); pH 7.4; 37.0 °C
# Experimental: For a typical transporter experiment we proceeded as follows. […] To minimize cell loss during the various washing steps in the radioactive uptake experiments, the wells where the cells were seeded were previously coated with poly- D-lysine, which improved their adhesion to the plastic surface of the wells. For this, each well of the 24-well plates was treated with 200 µl of a 0.01% poly-L-lysine solution for 10 min, washed 3 times with 1 ml of sterilized water and left to dry for 2 h. Only then could the 24-well plates be seeded with the appropriate cell lines and cultured overnight at 37 °C in 5% CO2.
# On day two, the radioactive uptake assay could be performed. The cell culture media was removed by aspiration and cells were incubated for 20 min at 37 °C and 5% CO2 with a basal medium (10 mM HEPES, pH 7.4, 1 mM CaCl2, 1 mM MgCl2, 2 mM KCl) containing 140 mM choline chloride to deplete intracellular Na^2+ ions. […]
# Once the uptake medium was added to the cells, the plates were incubated at 37 °C in 5% CO2 during the required time. […] In each experiment, the transport activities were calculated after subtracting a “blank” value, corresponding to the radioactivity in the appropriate control cells (HEK293T cells that were stably or transiently transfected with one of the parent plasmids pEF6/MycHisA, pEF6HisB, pUB82 or pUB83 with no inserted cDNA) that were analyzed in parallel. […]
protein,measurement,value
B1,Km,210 ± 12 µM
